A short description of this series: label from the status in PepcDB records.

For 18 sequences, protein production results are on record in a protein production outcome set (Wang et al. 2014).

“MPLCLRNAQQDDTQRLSQIARQTFALACPPDTPATEIEAFIQENLLPEHFSALLEAPGKQLRVLLDDNRVIGYSLVNLHPQDLGVAGADGIAELTRCYLDAAHHGSGAAQFLLAQTLAQQPGPLRLTVNEHNARAIRFYQRNGFVRVGETLFPCGADLHRDWVMLRR”: the protein production entry is reported as “failed”.

Regarding “MPLGHLFDKSYDEMHCNQKNWEMAERKLMEDAVQSALSKQNLKKEDIDIFLAGDLLNQNVTANYVARHLKIPFLCLFGACSTSMESIAISSALIDGGFAKRALAATSSHNATAERQFRYPTEYGGQKPGTATSTVTGSGAVVLSQQPGGIKITSATVGRVIDLGITDSQDMGSAMAPAAADTIKQHLEDLGRTPDDYDLILTGDLSGVGSPILKDLLKEEGINVGTKHNDCGLMIYTPDQQVFAGGSGCACSAVVTFAHIFKEIEAGRLNRVLVVATGALLSPTIIQQKESIPCIAHGVVFERAERGNALEHHHHHH”, the protein production entry was “not failed”.

Take “MPLHNLTRFPRLEFIGAPTPLEYLPRFSDYLGREIFIKRDDVTPMAMGGNKLRKLEFLAADALREGADTLITAGAIQSNHVRQTAAVAAKLGLHCVALLENPIGTTAENYLTNGNRLLLDLFNTQIEMCDALTDPNAQLEELATRVEAQGFRPYVIPVGGSNALGALGYVESALEIAQQCEGAVNISSVVVASGSAGTHAGLAVGLEHLMPESELIGVTVSRSVADQLPKVVNLQQAIAKELELTASAEILLWDDYFAPGYGVPNDEGMEAVKLLARLEGILLDPVYTGKAMAGLIDGISQKRFKDEGPILFIHTGGAPALFAYHPHV”: the protein production result is recorded as “failed”.

On to “MPLKRLGHRVLGLVLAAMLLYGGLAPPVRNFFALPWQQRLPAAAPISLPWELPPGLARQVEVKVNSGDWSRATTGDFPRWLQLQLKLFGFIPLKNITIQLVQPVDVSPGGQAIGVFLKTEGVQVVGQAAIVDERGNKVYLARQAGLETGDAIIAIDGQKVTSDQEVANLINAAGQANRQARITVKREGHLLTLNIHPRYCQETGRYRIGVYVRDSTAGVGTLTFYDQNKGVFGALGHVVTGSDGQTAMDISGGRIVAAAIQGIHQGYRGQPGEKLGVFLENGQFSGTIQKNTIVGIFGTITGKLPGNKEIPVALADTVHPGPAEILTVIEGEKVESFQVEIERVMPHQRASGKGLVLRITDPRLLAVTGGIIQGMSGSPIIQDGQLAGAVTHVFINDPTRGYGVLAEWMLQETELVPKDKARGATVETPGSFLFVVFCVG”, for which the protein production result is “failed”.

“MPLPPDITFDSLALIKMHSQNMKRILEVTLAKFTVNLSIVTVYRYLTARAYLKKNIEAEFEILKDIYNIVPLLDDIAIKAAQIEANLIKKEITLDMEDIITATTAIYTNSLLVTDDPKRYEPIRRFGLDTMPLDKFIKEVELMVEKELI”: the protein production result is “not failed”.

“MPLRCTKPLGATPATPTAPPTGRKGHQVAINGFITWILVTMSLVVYFLWAFIPTSFLDMVLASYYPDKYWAVAIPAILVMTMVYYLTVHFLLMLYRTDPLTDGFCVAQTNGAVRHESIENLVDVEDGVPPITDIPVSVASRLLFQPWN”: the protein production result is given as “failed”.

As to “MPLVNSHIVEECLPFTSLRLDPEDINLSMGAGYVPDAEIQAISDALETEIAGICTPRFLYALFDAEPAGTCEVGVNGISLKTGSVITPYLKDAAGYVLFVATAGYEFEAFQHRIGSQGDILREFLLDAYGSAIAEAVVREVCRKVESRMFPLGYGVSHPYSPGYCGWHVTQQQLLFSCLPEFPCGVRLSDSSLMSPIKSVSGIIAYGPCIVKRKYGCELCGKADCYKNRNKLNRLEHHHHHH”, the protein production result is reported as “not failed”.

With “MPLVSMKEMLNKALEGKYAVGQFNMNNLEWTQAILAAAEEEKSPVILGVSEGAARHMTGFKTVVAMVKALIEEMNITVPVAIHLDHGSSFEKCKEAIDAGFTSVMIDASHHPFEENVETTKKVVEYAHARNVSVEAELGTVGGQEDDVIAEGVIYADPAECKHLVEATGIDCLAPALGSVHGPYKGEPNLGFAEMEQVRDFTGVPLVLHGGTGIPTADIEKAISLGTSKINVNTENQIEFTKAVREVLNKDQEVYDPRKFIGPGRDAIKATVIGKIREFGSNGKA”, the protein production entry was “not failed”.

Turning to “MPMMNLIYLHGFRSSSLSIKGQQLKHYCQAFPYIQVHLPDLNLPPHEVIKKIENMIQSMDQVALIGSSLGGFYATQLVAKYQIPAVLINPAMRPWQLFRQLFSDQTLPYTVCETWTLDEQQLTEMEKIAVPVVQAADKILVLLQQGDEVLDYREAERYYSQPAHPSLIFTDAHGNHAMEDFENKLPLILAFL”, the protein production result is “failed”.

Consider “MPNDTHAQTGASGPTTLFTNANVLTVDAEFSTAQAIAIRGNRILAVGSDAEVRAAAGDDATVVDLEGKTVLPGFIDAHAHAVSGSVVDAIMDYVGMARFTTVDEVLNHIATRAAKTPAGDWLVFRNFDPAVQEGADALTFAELDPISTDHPIFILNASGHLAYANSRAFEVSGLTNDVPNPPGGEFVRDADGNLTGTIKNNVAFLQIAENYPAMKQVNPVEGLLGLLGKWSQQGLTTVSELSLGALAQSPADVQVMAAAAQSGRMTARLRAYPFYTLGTETWDNAGVKQGDGNALARVAGYKLVADGSNQGFTGLQREPYLNREDRGLAYMEPDELTTTALERAGKGWHLAIHGNGDAAIDNILDTCQALADAGIDMARVRPRIEHCSILHDEQIARMKALGVSASFLIGHVHYWGVAMRDQVFGLEKAQLLDRCKSVEEAGVGFTLHSDFMVTDPNPLHMIEMAVTRRTWKEPDYVLAPQERISVDSAIRAMTSEAAWQLFSDHEIGSLEPGKLADMVILDQDPRKVAPDEIKAIKVLETWMDGQRVFAA”, for which the protein production result is “failed”.

Turning to “MPNHDYRELAAVFAGGALGALARAALSALAIPDPARWPWPTFTVNVVGAFLVGYFTTRLLERLPLSSYRRPLLGTGLCGGLTTFSTMQVETISMIEHGHWGLAAAYSVVSITLGLLAVHLATVLVRRVRIRR”, the protein production entry is on record as “failed”.

With “MPNILYKIDNQYPYFTKNEKKIAQFILNYPHKVVNMTSQEIANQLETSSTSIIRLSKKVTPGGFNELKTRLSKFLPKEVTQYNVELVDNESTISLKNKLHSRSKAAL”, the protein production result is recorded as “not failed”.

As to “MPNSRLEGELPGGGVVTFDTDLPIAAHADEIADLIKHHQVVVVAGETGSGKTTQLPKICLALGRRQIAHTQPRRIAARSVAERVAEEMGVELGEQVGYQVRFTRRASSDTALTVMTDGVLLAEISHDRDLCAHDTIIIDEAHERSLNIDFLLGYLKQLLPRRPDLKVIITSATIDTARFSAHFDDAPVIEVSGRTYPVEVRYRPLDPSEQIRPDDEDDIDDEDELLHRPSAPSLTSPDDEVVDQVTGICRAVQELCREESGDILVFLAGEQEIRETAEALADLNLSNTEVLPLFARLSAAEQHRVFTPHTGRRIVLATNVAETSLTVPGIRYVIDPGTARISRYSVRTKVQRLPIEPVSQASANQRAGRCGRVAPGICIRLYSQTSFESRPEFTEPEILRTNLAAVILQMAQARLGAITDFPFVEAPDRSRINDGIRLLDELGALKPGHRDASRLTKIGHQLARVPLDPRLGRMLLEGARQGSLAEVLVIVAALSIRDVRERPADKREEADAFHRRFATEANLLQTLQAADNTDNNQVGDWSQVRRQHIHQEAANTAKPGPPARHTPHTRGKISPRPQAGGIDEGGDIMAIHRLWRYLRHQRRQMGSSAFRRMCRAEYINYLRVREWDDLHGQLRQIAKELHLEVNRTSAPTDRVLVALLSGLLSHIGLVQVRQPAKRHGQRPGPQEYLGARGTKFAINPGSLLARKSPELVVAVELVETSRLWARTVAAVQPEWVEEVAGPLIRRSWAVPHWAASTASVVATERGTLFGVPLWADRRVTYGRIDPVASRQIFIRSALVERNWRSDHGFLKHNDRVRDEAADLEERSRQRGLVADDDAIFAFYDRRIPDGIVSGSHFDAWWRRVQDRHQLDLSIDDLVDSGSVDADAFPDHWKVGNLELPVRYVFEPGSGHDGVTVTIPLALLNQVPTAPFSWQVPGLRTELATELIRALPKRIRTQLVPAPDRARAALTWLEDHDADRHAPFTNELGRALRTLTGVIINPDDWNIAAIPAHLRIGFDITDAEGRPVGKKSKKNGKDKLKGSQPAPIARSEDLDALQTDLAPKVSQSLTKAAGQPQIHGAKEWTFDPIPKRVDLSRKGPDAVGYPCLVDEGDSVGTTVLDTPRAQRTSHASGVVKLLVLNLPDPTKWVVTHMDNATKLALATSPYPSVPALLADARHKAVASVAQEKAGDLSGIRDKKTFDDLALVVRQDQADRMARVVRTAGRILSRVVAARQALATVSDPAIHADIVAQIDDLVFENFISATPDPWYDDMPRWIQGVSVRIESLMTNPSRDPRQMAELEPLLADYDALCEEQPAGKLPAEVEEIGFMLEELRVQYFAQKLGTRVSVSPKRIRMAIAKLS”, the protein production result is reported as “failed”.

Take “MPPELNWQEIDTVLLDMDGTLLDLEFDSHFWLKQVPETLSQRRGISLEQAHKIIHDEYLAVQHTLNWYCFDYWSERLDLDIYAMTTQAGNRVRLRQDTQPFLASLRERGLQTILLTNAHPHSLAVKIEHTALDQHLDLLLSTHTFGYPKEDQRLWQAVTQHTGLNPARTLFVDDSEKILDAARTFGIRYCLGIENPDSSCADKAFHSHPAINDYRKLLPALELRK”: the protein production entry was “failed”.

For “MPPIIKRRVMRKIIIASQNPAKVNAVRSAFSTVFPDQEWEFIGVSVPSEVADQPMSDEETKQGALNRVRNAKQRHPGAEYYVGLEAGIEENKTFAWMIVESDQQRGESRSACLMLPPLVLERLRQAKELGDVMDEVFGTENIKQKGGAIGLLTRHHLTRSTVYHQALILALIPFINPEHYPSA”, the protein production result was “not failed”.

Turning to “MPPQPDAAPPPLPPELAPLLPTDPVTIGPFRVIGRLGSGGMGAVYGALDAEHRCVAVKVIHAEHVRRPEYRELFAREAELVSRIDAECTPRFLGADPNAPEPWLATEFVPGRTLQQHVREFGPLDEAALRAFAAGTAEALAAIHAAGVVHLDVKPGNIMLAPDGPKVLDFGIARAIGDTTDKNVYGTPGWAAPERLDRQPGTPAADMFAWGGLIVFAATGRSPFGTGTSAELLERVRAGDCDLTGVPEELMELVARALSTDPEARPTAVEAFHTVLALDTVAADAIEEPGEDAAAIHRKRLRALLHRVWTGFDAAGHRPELWMALGTAAGGVGVAAGGAAALATQGTAGGGAAAGSGKLVGTASAAGGGASWGAGAGTLTKSATVTAAGTGLSGKAMLTVAAGATAAAVAGGWLVGRAVTDQPLLPFTDPEPSATAALAPSPEEDEKEGQEVRFRNLTLWFPEDWTVHVIEDIEFVGFGPDHEGREIVDDWIAAHPPGNPGCAEVDWNHWEWPAALVECPHIRILGPGGITYGGAVYEPITEEPDAGLFAPSQNPLPCIPGIDAYEADPASFPGQSPLVEELAPVGDRSALYREYLTPCGNPDGRDPELLYYTQRSWFLPESQILIVDEYGIEDIDAILADGEFASRSEED”, the protein production entry is recorded as “failed”.

With “MPQIQSSHSNHFDFTIDTADRTKLLMSYLVVPTTANFNNVMHGGELLNLLDKVAYVCSTRYCAKGTVTLSVDGVTFKYPIPVGNLLTFLASINYVGNTSCEVGIKVLSEDIKTREITHTNSCYFTMVAVENGKPTPMPKYEPKTEVEIRRYEGALKRKEMRTRGYLKSGKHEGV”, the protein production result was “failed”.

On to “MPQIYFSAAERRPKFVMKTGLSATEKNEVIKAAYRQIFERDITRAYSLSISDLESKVKNGDISMKEFVRRLAKSPLYQKQFYQPFINSRVIELAFRHILGRGPSSREEVQKYFSIISNGGLPALVDALVDSAEYSDYFGEETVPYLRGLEHHHHHH”, for which the protein production entry is reported as “failed”.
